Assay results reported in PMC3234216 (PLoS Pathogens, 2011).

Target: PA63 heptamer (63 kD form of anthrax toxin protective antigen) (Bacillus anthracis, UniProt P13423)
Experiment: NMR titration
Conditions: both partners purified

PA63 heptamer (63 kD form of anthrax toxin protective antigen), sequence (P13423 197-764): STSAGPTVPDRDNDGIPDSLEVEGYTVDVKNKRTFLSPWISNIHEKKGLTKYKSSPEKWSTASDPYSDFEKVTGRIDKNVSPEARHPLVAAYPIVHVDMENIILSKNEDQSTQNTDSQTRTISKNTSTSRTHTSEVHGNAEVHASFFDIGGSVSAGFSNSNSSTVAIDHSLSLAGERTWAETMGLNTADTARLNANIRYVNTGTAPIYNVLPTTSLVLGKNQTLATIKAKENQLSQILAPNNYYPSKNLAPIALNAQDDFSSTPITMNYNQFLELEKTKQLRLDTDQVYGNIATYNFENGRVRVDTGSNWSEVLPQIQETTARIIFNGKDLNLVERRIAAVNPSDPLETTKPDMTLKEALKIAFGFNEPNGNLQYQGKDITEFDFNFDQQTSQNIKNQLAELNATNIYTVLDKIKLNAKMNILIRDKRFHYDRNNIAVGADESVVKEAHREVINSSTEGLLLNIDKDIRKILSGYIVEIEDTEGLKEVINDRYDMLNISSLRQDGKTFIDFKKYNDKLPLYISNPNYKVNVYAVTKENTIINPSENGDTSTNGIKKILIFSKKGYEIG

B1: ANTXR2 VWA-domain (anthrax toxin receptor type 2, extracellular von Willebrand factor type A domain) (domain or fragment)
chain: SCRRAFDLYFVLDKSGSVANNWIEIYNFVQQLAERFVSPEMRLSFIVFSSQATIILPLTGDRGKISKGLEDLKRVSPVGETYIHEGLKLANEQIQKAGGLKTSSIIIALTDGKLDGLVPSYAEKEAKISRSLGASVYCVGVLDFEQAQLERIADSKEQVFPVKGGFQALKGIINSILAQSC
notes: also called capillary morphogenesis protein 2; CMG2
B1: binds.
